According to patent US20250270167A1:

Target: GHR

EC50 (chemiluminescence value, ONE-Glo, HEK293-GHR cells) [µg/mL] | Relative activity (%) | Substance
0.012 | – | rhGH standard product of National Institutes for Food and Drug Control (from UniProt P01241) (ligand)
0.0126 | – | Jintropin (commercially available rhGH drug, Changchun GeneScience Pharmaceutical Co., Ltd.) (from UniProt P01241) (ligand)
0.0686 | 18 | Polyethylene Glycol Recombinant Human Somatropin Injection (commercially available PEG-rhGH drug, Changchun GeneScience Pharmaceutical Co., Ltd.) (from UniProt P01241) (ligand)
